Test system: peptide library, one residue held at a place counted from the S/T acceptor
Assay: relative phosphorylation of the sub-library (ratio to the mean residue at this position); higher = residue favoured
Details: human
Procedure, shortened: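 Purified recombinant kinases were reacted in 384-well plates with biotinylated degenerate peptide sub-libraries, each having one residue fixed at one position around a central Ser/Thr. The reaction mix contained 50 μM peptide plus 50 μM ATP spiked with γ-32P-ATP and ran for 90 min under kinase-specific conditions. Relative sub-library phosphorylation, taken from densitometry of phosphorimaged streptavidin membrane spots, is a ratio to the mean residue at that position.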

Sequence of MAP4K1, construct: Full length (Q92918 whole entry, looked up): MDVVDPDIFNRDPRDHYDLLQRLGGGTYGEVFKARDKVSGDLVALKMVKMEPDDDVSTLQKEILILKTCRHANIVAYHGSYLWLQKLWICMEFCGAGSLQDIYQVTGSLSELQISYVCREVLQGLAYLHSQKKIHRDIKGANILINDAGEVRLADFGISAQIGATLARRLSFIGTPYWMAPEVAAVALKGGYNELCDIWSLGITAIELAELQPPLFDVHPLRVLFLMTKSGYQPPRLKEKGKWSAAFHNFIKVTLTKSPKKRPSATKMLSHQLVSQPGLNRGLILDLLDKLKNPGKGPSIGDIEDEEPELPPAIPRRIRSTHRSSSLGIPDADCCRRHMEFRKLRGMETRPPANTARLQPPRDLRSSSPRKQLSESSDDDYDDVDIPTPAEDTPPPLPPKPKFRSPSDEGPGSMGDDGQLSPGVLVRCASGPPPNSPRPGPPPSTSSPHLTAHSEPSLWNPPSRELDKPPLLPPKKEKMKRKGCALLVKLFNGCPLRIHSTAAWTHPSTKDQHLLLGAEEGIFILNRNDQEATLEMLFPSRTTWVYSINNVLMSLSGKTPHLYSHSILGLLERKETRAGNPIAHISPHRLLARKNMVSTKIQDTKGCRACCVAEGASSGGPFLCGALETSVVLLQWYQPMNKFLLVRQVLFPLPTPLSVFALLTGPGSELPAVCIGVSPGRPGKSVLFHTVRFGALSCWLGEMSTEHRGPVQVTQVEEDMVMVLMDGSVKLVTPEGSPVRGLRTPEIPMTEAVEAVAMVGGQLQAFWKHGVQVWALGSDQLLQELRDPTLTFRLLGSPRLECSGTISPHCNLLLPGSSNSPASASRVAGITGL
Sequence of MAPK1, construct: Full length (P28482 whole entry, looked up): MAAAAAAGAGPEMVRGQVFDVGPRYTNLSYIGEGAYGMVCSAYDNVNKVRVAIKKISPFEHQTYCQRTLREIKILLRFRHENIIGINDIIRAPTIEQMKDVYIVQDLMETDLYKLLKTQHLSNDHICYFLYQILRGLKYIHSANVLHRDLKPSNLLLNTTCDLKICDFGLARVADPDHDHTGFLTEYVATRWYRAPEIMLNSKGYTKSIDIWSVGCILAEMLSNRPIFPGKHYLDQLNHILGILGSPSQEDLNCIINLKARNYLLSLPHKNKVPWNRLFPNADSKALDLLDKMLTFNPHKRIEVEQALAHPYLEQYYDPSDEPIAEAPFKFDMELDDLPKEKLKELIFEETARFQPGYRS

MAP3K9, construct: aa132-413 (from UniProt P80192)
relative phosphorylation
Details	at +1	at +2	at +3	at +4	at -1	at -2	at -3	at -4	at -5
A fixed	0.832	0.66	0.89	0.949	0.791	0.914	1.07	1.13	1.12
D fixed	0.308	0.362	0.612	0.652	1.02	1.23	1.16	1.57	1.45
E fixed	0.492	0.46	0.619	0.719	0.854	1.03	1.38	1.45	1.3
F fixed	1.61	0.594	1.44	0.823	1.19	1.33	1.14	0.824	0.978
G fixed	0.686	0.727	0.991	1.02	0.525	0.932	1.21	1.18	1.13
H fixed	1.23	1.66	1.28	0.995	1.3	1.13	1.1	0.955	0.984
I fixed	1.3	0.627	0.865	0.842	0.899	0.715	0.785	0.734	0.887
K fixed	1.19	2.81	1.59	1.94	1.07	0.523	0.688	0.998	0.882
L fixed	0.969	0.598	1.11	0.841	1.08	0.824	0.792	0.759	0.737
M fixed	1.28	0.522	0.995	0.952	1.25	0.931	0.863	0.929	0.827
N fixed	0.689	0.836	0.797	0.946	1.1	1.07	1.04	0.951	1.08
P fixed	0.208	0.36	0.501	1.04	0.775	1.57	1.15	0.99	0.9
Q fixed	1.2	0.907	0.741	0.943	0.924	1.08	0.925	0.934	0.901
R fixed	1.55	3.45	1.47	1.8	1.26	0.817	0.946	1.14	1.05
V fixed	1.49	0.602	0.796	0.767	0.873	0.701	0.798	0.83	0.908
W fixed	1.19	0.687	1.19	1.05	0.969	1.13	0.881	0.892	0.907
Y fixed	0.772	1.13	1.12	0.72	1.13	1.07	1.08	0.745	0.958
pThr fixed	0.825	0.703	0.677	1.01	0.976	1.23	1.83	1.55	1.57
pTyr fixed	0.628	0.376	0.709	0.622	1.29	1.19	1.54	1.02	1.54

MAP3K20, construct: Full length (from UniProt Q9NYL2)
relative phosphorylation
Details	at +1	at +2	at +3	at +4	at -1	at -2	at -3	at -4	at -5
A fixed	0.455	0.721	0.832	0.953	0.78	0.903	1.01	0.913	1.12
D fixed	0.247	0.439	0.477	0.582	1.46	1.01	0.926	1.29	1
E fixed	0.359	0.359	0.543	0.629	0.797	0.946	1.13	1.14	0.884
F fixed	1.58	0.694	1.11	0.722	0.853	1.03	0.835	0.894	0.925
G fixed	0.282	0.564	0.99	1.06	1.22	1.45	1.18	1.16	1.09
H fixed	1.07	2.45	1.13	1.14	1.79	1.61	1.2	1.13	1.1
I fixed	2.51	0.692	1.08	0.729	0.394	0.631	0.772	0.72	0.733
K fixed	0.486	1.57	1.45	2.05	1.01	0.509	0.819	1.08	1.39
L fixed	1.3	0.646	1.07	0.672	0.679	0.858	0.952	0.736	0.812
M fixed	0.981	0.758	0.972	0.818	1.13	0.812	0.915	0.849	0.822
N fixed	0.473	0.996	0.822	0.946	1.63	1.12	1.28	1.19	1.11
P fixed	0.261	0.41	0.771	1.16	0.632	0.693	1.23	1.07	1.03
Q fixed	0.629	0.894	0.896	1.04	1.08	0.977	0.892	0.932	0.914
R fixed	0.557	2.15	1.42	1.72	1.12	0.662	1.01	1.11	1.14
V fixed	2.5	0.779	0.984	0.69	0.461	0.647	0.841	0.76	0.772
W fixed	1.27	1.08	1.25	1.19	0.778	2.07	1.11	1.07	1.14
Y fixed	2.03	1.8	1.21	0.895	1.18	1.07	0.909	0.959	1.01
pThr fixed	0.837	0.564	0.781	0.663	0.615	1.09	1.34	1.2	1.22
pTyr fixed	0.662	0.528	0.72	0.694	0.997	0.935	1.06	0.797	1.04

MAP4K1, construct: Full length (from UniProt Q92918)
relative phosphorylation
Details	at +1	at +2	at +3	at +4	at -1	at -2	at -3	at -4	at -5
A fixed	0.465	0.82	0.882	0.928	0.991	1.1	0.946	0.951	1.07
D fixed	0.192	0.786	0.471	0.756	0.585	0.362	0.52	0.653	0.679
E fixed	0.199	0.706	0.454	0.629	0.441	0.302	0.487	0.699	0.613
F fixed	1.23	0.581	0.893	0.879	0.987	1.36	0.908	1.14	1.11
G fixed	0.58	0.957	0.933	1.13	1.79	1.06	1.21	1.29	1.15
H fixed	0.575	1.13	1.04	1.08	1.37	1.36	1.3	1.08	1.07
I fixed	1.91	0.442	0.571	0.806	0.342	0.646	0.545	0.706	0.763
K fixed	0.56	2.51	1.8	1.65	1.24	1.11	1.93	1.26	1.49
L fixed	3.52	0.604	0.724	0.863	1.17	0.667	0.694	0.798	0.746
M fixed	2.94	0.695	0.763	0.861	1.26	0.794	0.823	0.896	0.934
N fixed	0.442	0.974	0.925	0.978	1.3	0.931	0.928	0.849	0.88
P fixed	0.396	1.17	1.13	1.02	0.534	0.62	0.766	0.955	1.09
Q fixed	0.5	0.869	0.837	0.958	0.745	0.679	0.904	0.888	0.83
R fixed	0.573	2.9	2.98	1.62	1.62	1.6	2.01	1.39	1.34
V fixed	0.584	0.521	0.654	0.815	0.438	0.798	0.634	0.828	0.895
W fixed	1.45	0.627	0.991	1.14	0.909	1.51	1.28	1.37	1.15
Y fixed	0.877	0.706	0.942	0.887	1.27	2.1	1.11	1.24	1.2
pThr fixed	1.32	1.33	1.14	0.786	0.699	1.1	1.22	1.25	1.32
pTyr fixed	0.373	0.593	0.669	0.602	0.86	0.653	0.977	0.948	1.04

MAPK1, construct: Full length (from UniProt P28482)
relative phosphorylation
Details	at +1	at +2	at +3	at +4	at -1	at -2	at -3	at -4	at -5
A fixed	0.973	0.668	0.858	0.681	0.711	0.878	1	0.906	0.914
D fixed	0.121	0.537	0.684	0.75	0.577	0.465	1.09	1.21	1.23
E fixed	0.0909	0.28	0.721	0.679	0.447	0.486	1.19	1.28	0.955
F fixed	0.427	1.43	1.46	1.18	0.906	0.58	0.839	0.886	1.02
G fixed	0.756	1.02	0.866	0.753	0.711	0.513	1.06	1.02	1.02
H fixed	0.474	1.66	1.37	1.17	1.23	0.622	1.02	1.06	1.21
I fixed	0.235	0.91	1.05	1.15	0.727	1.49	0.814	1.08	0.752
K fixed	0.472	1.6	0.821	1.55	1.59	0.547	0.723	1.01	1.07
L fixed	0.426	1.26	1.15	1	1.43	1.87	0.915	0.817	0.912
M fixed	0.4	1.16	1.13	1.11	1.35	1.35	1.07	0.993	0.812
N fixed	0.216	1.06	0.676	0.933	0.86	0.776	1.11	1.02	1.07
P fixed	10.5	0.399	1.05	0.748	0.916	3.03	1.48	0.895	0.946
Q fixed	0.289	0.785	0.682	0.96	1.25	1.1	1.15	1.09	1.03
R fixed	0.442	1.67	0.931	1.07	1.76	0.901	1.11	1.11	1.18
V fixed	0.256	0.8	0.799	0.853	0.669	1.34	0.79	0.643	0.689
W fixed	0.453	0.885	1.41	1.3	0.828	0.512	0.807	1.04	1.05
Y fixed	0.439	0.869	1.35	1.1	1.04	0.549	0.838	0.945	1.15
pThr fixed	0.432	0.683	0.642	0.847	0.381	1.05	1.2	1.18	1.16
pTyr fixed	0.517	0.404	1.01	0.861	0.351	0.691	1.31	0.918	1.18
